Article PMC7589778

Molecular target: Human mitochondrial LysRS with a C-terminal HA-tag (human) (UniProt Q15046)
Assay: AlphaScreen or HTRF

Substance	Kd [nM]
Integrase from HIV-2_TRA with a C-terminal His-tag (enzyme)	3.5
Integrase from HIV-2_ALL with a C-terminal His-tag (enzyme)	2.4
